Columns and labels:
[1] = biological target: T1, monomeric SDF-1 (human, UniProt P48061 22-89); assay: SPR (Biacore), low density of SDF-1 covalently attached to CM5 chip, analyte at 10-50 nM
T1 construct: also called monomeric form of SDF-1; SDF-1 at low density on a CM5 chip

[2] = biological target: T2, recombinant human SDF-1α (Peprotech) (human, UniProt P48061 22-89); assay: SPR (Biacore), antibody amine-coupled to CM5 chip, SDF-1 flowed at 5-40 nM right after dilution to maximize the dimer population, 1:1 Langmuir fit
T2 construct: Bought protein (Peprotech, cat. 300-28A); also called rh SDF-1α; Stromal cell-Derived Factor-1
Experimental: The antigen-antibody association kinetics was followed for 2 minutes and the dissociation kinetics was followed for 8 minutes. The association and dissociation curves were fit to a 1:1 Langmuir binding model using BIAevaluation software (Biacore AB).

[3] = biological target: T1, monomeric SDF-1; assay: SPR (Biacore), low density of SDF-1 covalently attached to CM5 chip, analyte at 100-500 nM
[4] = biological target: T2, recombinant human SDF-1α (Peprotech); assay: cell-based or functional assay
[5] = biological target: T2, recombinant human SDF-1α (Peprotech); assay: radio-labeled ligand binding assay: the antibody blocks binding of 100 pM 125I-SDF-1 to CEM cells; unit taken from the axis 'Ab in nM'
Excerpt: (§1) An irrelevant antibody with the same isotype was used as a negative control.

[6] = biological target: T2, recombinant human SDF-1α (Peprotech); assay: radio-labeled ligand binding assay: the antibody blocks binding of 100 pM 125I-SDF-1α to HuVEC cells (GAGs, no CXCR4); unit taken from the axis 'Ab conc in nM'
Excerpt: as §1

T2 sequence (P48061 22-89 limits assumed): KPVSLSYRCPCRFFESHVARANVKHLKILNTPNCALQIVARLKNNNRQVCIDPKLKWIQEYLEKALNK
T1 sequence (P48061 22-89 limits assumed): as above

| Binder | Kd [1] [nM] | koff [1] [s⁻¹] | kon [1] [M⁻¹ s⁻¹] | Kd [2] [nM] | koff [2] [s⁻¹] | kon [2] [M⁻¹ s⁻¹] | Kd [3] [nM] | koff [3] [s⁻¹] | kon [3] [M⁻¹ s⁻¹] | EC50, inhibition of SDF-1α (5 nM)-induced migration of CEM cells (Fluorescent Units) [4] [nM] | EC50 [5] [nM] | EC50 [6] [nM] |
| --- | --- | --- | --- | --- | --- | --- | --- | --- | --- | --- | --- | --- |
| 1C6 human monoclonal antibody (antibody, V domains shown, Whole human monoclonal antibody with kappa light chain (VK L18), from a HuMAb Mouse; also called Z1/C6; mAb Z group antibody) VH: EVQLVESGRGLVQPGGSLRLSCAASGFTFSSYWMSWVRQAPGKGLEWVANMNQDGSEKYYVDSVKGRFTISRDNAKNSLYLQMNSLRAEDTAVYYCARDLTGPYYYDYYGMDVWGQGTTVTVSS VL: AIRMTQSPSSVSASVGDRVTITCRASQGISSALAWYQQTPGKAPKLLIYDASSLESGVPSRFSGSGSGTDFTLTISSLQPEDFATYYCQQFNSYPRTFGQGTKVEIK | 3.6 | 0.0004 | 110000 | 0.46 | 0.00064 | 1.4e+06 |  |  |  |  |  |  |
| 1D3 human monoclonal antibody (antibody, V domains shown, Whole human monoclonal antibody with kappa light chain (VK L18), from a KM Mouse; also called B1/D3; mAb B group antibody) VH: EVQLVQSGAEVKKPGASVKVSCKVSGYTLTKLSVHWVRQAPGKGLEWMGSFDPEDGETIYSQRFQGRVTMTEDTSTDTAYMELTSLRSEDTAVYYCATEGQWLVAYYGMDVWGQGTTVTVSS VL: EIVLTQSPSSLSASVGDRVTITCRASQGISSALAWYQQKPGKAPKLLIYDASSLESGVPSRFSGSGSGTDFTLTISSLQPEDFATYYCQQFNSYPLTFGGGTKVEIK |  |  |  | 0.63 | 0.0005 | 800000 | 151 | 0.0017 | 11000 |  |  |  |

More lines, now with the values ahead:

| Kd [1] [nM] | koff [1] [s⁻¹] | kon [1] [M⁻¹ s⁻¹] | Kd [2] [nM] | koff [2] [s⁻¹] | kon [2] [M⁻¹ s⁻¹] | Kd [3] [nM] | koff [3] [s⁻¹] | kon [3] [M⁻¹ s⁻¹] | EC50, inhibition of SDF-1α (5 nM)-induced migration of CEM cells (Fluorescent Units) [4] [nM] | EC50 [5] [nM] | EC50 [6] [nM] | Binder |
| --- | --- | --- | --- | --- | --- | --- | --- | --- | --- | --- | --- | --- |
| 4.6 | 0.00045 | 96000 | 0.37 | 0.0011 | 2.9e+06 |  |  |  | 0.543 | 0.347 | 0.0637 | 2A5 human monoclonal antibody (antibody, V domains shown, Whole human monoclonal antibody with kappa light chain (VK L18), from a HuMAb Mouse; also called Z2/A5; Z2A5) VH: QVQLVQSGGGLVQPGGSLRLSCAASGFTFSSYWMSWVRQAPGKGLEWVANMNQDGSEKYYVDSVKGRFTISRDNAKNSLYLQMNSLRAEDTAVYYCARDLTGPYYYDYYGMDVWGQGTTVTVSS VL: DIQMIQSPSSLSASVGDRVTITCRASQGISSALAWYQQKPGKAPKLLIYDASSLESGVPSRFSGSGSGTDFTLTISSLQPEDFATYYCQQFNSYPRTFGQGTKVEIK |
|  |  |  | 1.32 | 0.00084 | 600000 | 176 | 0.0016 | 9100 | 0.498 | 0.117 | 0.013 | 1H2 human monoclonal antibody (antibody, V domains shown, Whole human monoclonal antibody with kappa light chain (VK L18), from a KM Mouse; also called B1/H2; B1H2) VH: QVQLVQSGAEVKKPGASVKVSCKVSGYTFTKLSVHWVRQAPGKGLEWMGSFDPEDGETIYSQRFQGRVTMTEDTSTDTAYMELSSLRSEDTAVYYCATEGQWLVAYYGMDVWGQGTMVTVSS VL: EIVLTQSPSSLSASVGDRVTITCRASQGISSALAWYQQKPGKAPKLLIYDASSLESGVPSRFSGSGSGTDFTLTISSLQPEDFATYYCQQFNSYPLTFGGGTKVEIK |
